Some targets named below: GRK6(h) (human, UniProt P43250 1-576, limits assumed); Met(D1246H)(h) (human, UniProt P08581-2 974-1408, limits assumed); AMPKa1(h) (human, UniProt Q13131 1-559, limits assumed); Rsk1(h) (human, UniProt Q15418 1-735, limits assumed); Rsk4(h) (human, UniProt Q9UK32 1-745, limits assumed); Src(T341M)(h) (human, UniProt P12931 1-536, limits assumed); cKit(D816H)(h) (human, UniProt P10721 544-976, limits assumed); EGFR(T790M,L858R)(h) (human, UniProt P00533 696-1210, limits assumed).

Holding throughout (assay): cell-based or functional assay
The next assay deals with T1, PKD2(h) (human, UniProt Q9BZL6 1-878, limits assumed).
T1 sequence (looked up): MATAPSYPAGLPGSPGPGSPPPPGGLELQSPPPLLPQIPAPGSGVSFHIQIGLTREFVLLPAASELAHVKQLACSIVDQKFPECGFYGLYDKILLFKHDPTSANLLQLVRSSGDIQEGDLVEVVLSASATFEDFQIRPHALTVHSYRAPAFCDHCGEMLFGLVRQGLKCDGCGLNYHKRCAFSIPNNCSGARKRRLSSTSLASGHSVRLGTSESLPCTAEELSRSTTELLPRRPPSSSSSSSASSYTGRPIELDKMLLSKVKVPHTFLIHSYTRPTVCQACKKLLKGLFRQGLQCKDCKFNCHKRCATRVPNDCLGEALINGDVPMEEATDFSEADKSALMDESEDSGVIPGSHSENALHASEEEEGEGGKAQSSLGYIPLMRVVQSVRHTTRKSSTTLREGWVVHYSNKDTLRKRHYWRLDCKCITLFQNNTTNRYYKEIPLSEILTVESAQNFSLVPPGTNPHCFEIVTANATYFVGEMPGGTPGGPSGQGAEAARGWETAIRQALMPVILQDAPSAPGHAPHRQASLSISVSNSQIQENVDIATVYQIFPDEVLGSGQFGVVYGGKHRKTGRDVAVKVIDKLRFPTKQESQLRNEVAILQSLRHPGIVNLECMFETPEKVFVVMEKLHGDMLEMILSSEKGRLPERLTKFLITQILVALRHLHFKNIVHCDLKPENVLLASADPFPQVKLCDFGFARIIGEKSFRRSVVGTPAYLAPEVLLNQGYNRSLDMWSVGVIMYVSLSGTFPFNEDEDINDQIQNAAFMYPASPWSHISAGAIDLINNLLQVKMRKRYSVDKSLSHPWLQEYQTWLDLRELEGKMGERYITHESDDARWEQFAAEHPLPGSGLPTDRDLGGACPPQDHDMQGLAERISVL

A further assay addresses T2, Ax1(h) (human, UniProt P30530 473-894, limits assumed).
T2 sequence (looked up): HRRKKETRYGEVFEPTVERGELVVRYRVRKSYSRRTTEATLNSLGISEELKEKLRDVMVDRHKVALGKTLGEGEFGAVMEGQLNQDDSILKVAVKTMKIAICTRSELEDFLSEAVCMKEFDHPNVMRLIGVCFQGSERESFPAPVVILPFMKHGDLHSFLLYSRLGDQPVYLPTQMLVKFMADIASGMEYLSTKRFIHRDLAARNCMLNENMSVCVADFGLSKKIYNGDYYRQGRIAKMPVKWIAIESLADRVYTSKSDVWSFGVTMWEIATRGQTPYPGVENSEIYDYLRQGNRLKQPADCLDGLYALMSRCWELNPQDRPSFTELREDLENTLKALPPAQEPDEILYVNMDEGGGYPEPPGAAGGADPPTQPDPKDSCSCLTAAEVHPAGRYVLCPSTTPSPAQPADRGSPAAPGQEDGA

A further assay deals with T3, Ret(h) (human, UniProt P07949 658-1114, limits assumed).
T3 sequence (looked up): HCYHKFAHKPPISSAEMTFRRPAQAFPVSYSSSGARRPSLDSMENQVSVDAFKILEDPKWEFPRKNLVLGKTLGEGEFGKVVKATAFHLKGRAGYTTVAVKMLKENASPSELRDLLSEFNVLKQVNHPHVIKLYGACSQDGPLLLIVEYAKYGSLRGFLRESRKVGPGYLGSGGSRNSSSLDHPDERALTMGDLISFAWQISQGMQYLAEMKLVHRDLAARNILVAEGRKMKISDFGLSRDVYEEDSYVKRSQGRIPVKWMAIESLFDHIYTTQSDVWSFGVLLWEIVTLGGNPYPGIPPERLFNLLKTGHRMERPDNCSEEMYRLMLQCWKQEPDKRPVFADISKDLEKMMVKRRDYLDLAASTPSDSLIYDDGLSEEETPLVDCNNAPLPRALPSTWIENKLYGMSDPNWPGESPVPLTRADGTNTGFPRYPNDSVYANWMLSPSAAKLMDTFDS

Turning to FAKLAARLYRKALARQLGVAA [MMI-0300], the “% activity” value stood at 147% in the assay with GRK6(h); 125% with Met(D1246H)(h); 71% with AMPKa1(h); 33% with PKD2(h); 52% with Ax1(h); 140% with Ret(h). Further, the “% activity” value with Rsk1(h) is 46%; with Rsk4(h), 90%; with Src(T341M)(h) it was 70%; with cKit(D816H)(h), 126%; in the assay with EGFR(T790M,L858R)(h), 85%.

On to KAFAKLAARLYRKALARQLGVAA [MMI-0400], for which the “% activity” value in the assay with GRK6(h) turned out to be 141%; with Met(D1246H)(h) it was 68%; with AMPKa1(h) it was 87%; with PKD2(h) it was 25%; with Ax1(h) it was 41%; in the assay with Ret(h), 145%. Also, the “% activity” value with Rsk1(h) is 54%; with Rsk4(h), 91%; with Src(T341M)(h), 76%; with cKit(D816H)(h), 143%; in the assay with EGFR(T790M,L858R)(h), 78%.

The record behind these values is patent US20160200782A1 (MOERAE MATRIX, published 2016).
